# Values joined by “and” are separate entries in the source; they are usually repeats but may differ in a detail not shown here. Equal values may be shown once.
# Legend:
# [1] = system: primary R5 HIV-1 isolates; experiment: Whole virus replication (neutralization) assay in PBMC, p24 ELISA; format: cell-based; conditions: variety of primary R5 strains (FIG. 1)
# Experimental: The data reflect the median values from 8 or more independent assays. The genetic subtypes of the viruses are indicated in parentheses.
# Replication of authentic HIV-1 is measured in activated peripheral blood mononuclear cells (PBMCs) using the monocyte/macrophage-tropic HIV-1 clone, JRFL (HIV-1JRFL), for these studies.
# PBMCs are isolated from 4 separate donors (Leukopacks) by centrifugation on a Ficoll gradient. CD8 cells are depleted using RosetteSep CD8 Depletion Cocktail (#15663, StemCell Research, Vancouver, BC). […]
# Serial dilutions of virus are tested in quadruplicate on activated PBMCs (1.4×10^5 PBMC/well). […] Virus titer is determined by the method of Reed and Muench (Table 11, see below). […]
# The percent inhibition is derived as follows [1−(p24 levels in the presence of drug/p24 levels in the absence of drug)]×100. IC50 values are determined by fitting the inhibition data with a non-linear, four-parameter, variable slope equation (GraphPad Prism, ver. 4.02; GraphPad Software, San Diego, Calif.). […]
# Serial dilutions of virus are tested in quadruplicate on activated PBMCs (1.4×10^5 PBMC/well). […] Virus titer is determined by the method of Reed and Muench (Table 11).
# [2] = system: HIV-1 CC 1/85; experiment: Previous studies (300-TD-028): HIV-1 replication in PBMC quantitated by p24 ELISA, CC 1/85; format: cell-based
# Experimental: The EC values were measured by p24 ELISA in previous studies, according to published methods. Because the p24 ELISA cannot efficiently quantitate p24 from the HIV-2 isolates used in this study, a commercial ELISA that measures reverse transcriptase was chosen as a readout for both the HIV-2 and HIV-1 infection assays in the present study.
# [3] = system: CCR5 chemokine signaling; experiment: RANTES-induced calcium mobilization in L1.2-CCR5 cells vs HIV-1JR-FL replication in PBMC (FIG. 4); format: cell-based, human; conditions: FIG. 4 legend, result in words
# Description: Similar results were obtained for MIP-1α and MIP-1β.
# [4] = system: HIV-1JR-CSF; experiment: hu-PBL SCID mouse model infected with HIV-1JR-CSF (FIG. 5); format: in vivo; conditions: multiple doses after steady state viral levels, FIG. 5 legend
# Experimental: SCID mice were reconstituted with normal human peripheral blood mononuclear cells and infected 2 weeks later with HIV-1JR-CSF. Multiple doses of PRO 140 were administered following attainment of steady state viral levels. Plasma viral loads pre- and post-injection are indicated.
# [5] = individual assays (Source), previous study, p24 ELISA
# [6] = previous studies n = 24, median
molecule,measurement,setting,value
"PRO 140: humanized IgG4,κ anti-CCR5 monoclonal antibody, humanized version of murine mAb PA14 (antibody, chains of the INN, looked up, V domains shown) VH: EVQLVESGGGLVKPGGSLRLSCAASGYTFSNYWIGWVRQAPGKGLEWIGDIYPGGNYIRNNEKFKDKTTLSADTSKNTAYLQMNSLKTEDTAVYYCGSSFGSNYVFAWFTYWGQGTLVTVSS VL: DIVMTQSPLSLPVTPGEPASISCRSSQRLLSSYGHTYLHWYLQKPGQSPQLLIYEVSNRFSGVPDRFSGSGSGTDFTLKISRVEAEDVGVYYCSQSTHVPLTFGQGTKVEIK",IC90,[1],3 to 4 µg/mL
same,EC50,[2]; [5],1.1 µg/mL and 0.004 µg/mL and 1.4 µg/mL and 0.16 µg/mL and 2.1 µg/mL and 0.006 µg/mL and <0.001 µg/mL and 0.001 µg/mL and 0.01 µg/mL and 4.5 µg/mL and 0.7 µg/mL and 0.96 µg/mL and 0.67 µg/mL and 0.58 µg/mL and 5.4 µg/mL and 4.6 µg/mL and 0.04 µg/mL and 0.85 µg/mL and 7.8 µg/mL and 5.1 µg/mL and 2.7 µg/mL and 0.08 µg/mL and 0.1 µg/mL
same,EC90,[2]; [5],13 µg/mL and 0.34 µg/mL and 4.2 µg/mL and 3.6 µg/mL and 9.6 µg/mL and 0.22 µg/mL and <0.001 µg/mL and 0.01 µg/mL and 0.03 µg/mL and 1.1 µg/mL and >50 µg/mL and 4.9 µg/mL and 8.1 µg/mL and 24 µg/mL and 33 µg/mL and 7.3 µg/mL and 8.2 µg/mL and 0.88 µg/mL and 3.4 µg/mL
same,EC50 (mean),"[2]; previous studies n = 24, mean",<1.6 µg/mL
same,EC90 (mean),"[2]; previous studies n = 24, mean",>12 µg/mL
same,EC50 (median),[2]; [6],0.69 µg/mL
same,EC90 (median),[2]; [6],4.9 µg/mL
same,effect on HIV-1 vs chemokine signaling,[3],blocks HIV-1 but not chemokine signaling
same,control of viral replication in HIV-1-infected mice,[4],provides prolonged control of viral replication

# Reference: patent US20090074766A1, “Methods of inhibiting HIV-2 infection” (priority 2007, published 2009)
